Experimental data: US20200079833A1 (AstraZeneca / MedImmune, published 2020)
Starred links: 1 amine or outer side, 2 acyl side, 3 side chain; linkers in the order of their positions; H or OH if unused. Non-standard residues stand in square brackets, D forms with d. Groups on a side chain read outwards from the residue. Primed or numbered codes have the meaning given here. No end group written: not given here. *: point of attachment. Dodecylbenzoate = dodecylbenzoyl lipid group; γGlu = O=C(O)[C@H](CCC(=O)[*:2])N[*:1]; Stearoyl = CCCCCCCCCCCCCCCCCC(=O)*; αMeF = C[C@](N)(Cc1ccccc1)C(=O)O; αMeK = C[C@](N)(CCCCN)C(=O)O; αMeS = C[C@](N)(CO)C(=O)O; PEG2′ = not defined here; Aib = CC(C)(N)C(=O)O; Ahx = NCCCCCC(=O)O

T1: glucose-dependent insulinotropic peptide (gastric inhibitory polypeptide) receptor (GIPR) (human, UniProt P48546 22-466)
T1 sequence (looked up): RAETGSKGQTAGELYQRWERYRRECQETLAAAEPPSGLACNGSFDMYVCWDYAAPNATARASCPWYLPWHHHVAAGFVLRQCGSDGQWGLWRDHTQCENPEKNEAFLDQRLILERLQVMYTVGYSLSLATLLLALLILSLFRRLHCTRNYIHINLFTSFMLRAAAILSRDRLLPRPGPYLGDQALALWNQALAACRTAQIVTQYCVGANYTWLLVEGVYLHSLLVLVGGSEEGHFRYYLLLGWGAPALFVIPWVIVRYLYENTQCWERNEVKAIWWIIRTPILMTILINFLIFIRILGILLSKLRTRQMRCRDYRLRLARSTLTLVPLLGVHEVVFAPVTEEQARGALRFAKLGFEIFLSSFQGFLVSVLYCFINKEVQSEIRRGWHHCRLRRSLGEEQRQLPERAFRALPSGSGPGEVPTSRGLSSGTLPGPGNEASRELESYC


Key:
Test in all cases: cell-based or functional assay
glucagon receptor (GCGR) = glucagon receptor (GCGR) (human, UniProt P47871 26-477)
GLP-1 receptor (GLP-1R) = GLP-1 receptor (GLP-1R) (human, UniProt P43220 24-463)
[1] = molecular target: T1, glucose-dependent insulinotropic …

Sequence of glucagon receptor (GCGR) (P47871 26-477): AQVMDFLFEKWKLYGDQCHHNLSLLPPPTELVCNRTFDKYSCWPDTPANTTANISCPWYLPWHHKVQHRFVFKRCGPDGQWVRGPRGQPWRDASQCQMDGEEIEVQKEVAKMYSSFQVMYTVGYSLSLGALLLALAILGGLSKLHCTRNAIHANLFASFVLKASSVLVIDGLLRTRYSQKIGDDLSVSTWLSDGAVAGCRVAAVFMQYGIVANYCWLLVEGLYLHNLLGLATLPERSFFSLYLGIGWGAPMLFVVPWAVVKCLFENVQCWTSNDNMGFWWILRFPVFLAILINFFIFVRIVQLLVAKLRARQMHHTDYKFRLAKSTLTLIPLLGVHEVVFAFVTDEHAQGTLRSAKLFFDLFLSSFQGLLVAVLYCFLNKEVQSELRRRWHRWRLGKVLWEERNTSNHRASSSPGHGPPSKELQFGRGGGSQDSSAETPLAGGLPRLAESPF

Primary assay EC50 (cAMP), Gluc-R, first run (glucagon receptor (GCGR)) [nM]	Primary assay EC50 (cAMP), Gluc-R, second run (glucagon receptor (GCGR)) [nM]	Primary assay EC50 (cAMP), GLP-1R n1 (GLP-1 receptor (GLP-1R)) [nM]	Primary assay EC50 (cAMP), GLP-1R n2 (GLP-1 receptor (GLP-1R)) [nM]	Primary assay EC50 (cAMP), Mean pM GLP-1R (GLP-1 receptor (GLP-1R)) [pM]	Primary assay EC50 (cAMP), GIP-R, first run [1] [nM]	Primary assay EC50 (cAMP), GIP-R, second run [1] [nM]	Binder
28	28	0.13	0.052	89.9	28	28	H[Aib]EGS[αMeF]TSDV[αMeS]S[αMeF]LEGEAA[αMeK]E[αMeF]IA[αMeF]VVK([γGlu-Stearoyl])GG-NH2 (N-terminus assumed; SMILES CCCCCCCCCCCCCCCCCC(=O)N[C@@H](CCC(=O)NCCCC[C@H](NC(=O)[C@@H](NC(=O)[C@@H](NC(=O)[C@](C)(Cc1ccccc1)NC(=O)[C@H](C)NC(=O)[C@@H](NC(=O)[C@](C)(Cc1ccccc1)NC(=O)[C@H](CCC(=O)O)NC(=O)[C@](C)(CCCCN)NC(=O)[C@H](C)NC(=O)[C@H](C)NC(=O)[C@H](CCC(=O)O)NC(=O)CNC(=O)[C@H](CCC(=O)O)NC(=O)[C@H](CC(C)C)NC(=O)[C@](C)(Cc1ccccc1)NC(=O)[C@H](CO)NC(=O)[C@](C)(CO)NC(=O)[C@@H](NC(=O)[C@H](CC(=O)O)NC(=O)[C@H](CO)NC(=O)[C@@H](NC(=O)[C@](C)(Cc1ccccc1)NC(=O)[C@H](CO)NC(=O)CNC(=O)[C@H](CCC(=O)O)NC(=O)C(C)(C)NC(=O)[C@@H](N)Cc1c[nH]cn1)[C@@H](C)O)C(C)C)[C@@H](C)CC)C(C)C)C(C)C)C(=O)NCC(=O)NCC(N)=O)C(=O)O) [SEQ ID NO 182]
25	25	0.0021	0.00083	1.5	25	25	H[Aib]EGS[αMeF]TSDV[αMeS]S[αMeF]LEGEAA[αMeK]E[αMeF]IA[αMeF]VVK([PEG2′-PEG2′-PEG2′-Dodecylbenzoate])GG-NH2 [SEQ ID NO 181]
27	27	0.0064	0.003	4.7	27	27	H[Aib]EGS[αMeF]TSDV[αMeS]S[αMeF]LEGEAA[αMeK]E[αMeF]IA[αMeF]VVK([Ahx-Ahx-Dodecylbenzoate])GG-NH2 [SEQ ID NO 177]
27	27	0.011	0.0044	7.9	27	27	H[Aib]EGS[αMeF]TSDV[αMeS]S[αMeF]LEGEAA[αMeK]E[αMeF]IA[αMeF]VVK([PEG2′-Dodecylbenzoate])GG-NH2 [SEQ ID NO 179]
27	27	0.064	0.018	40.9	27	27	H[Aib]EGS[αMeF]TSDV[αMeS]S[αMeF]LEGEAA[αMeK]E[αMeF]IA[αMeF]VVK([γGlu-γGlu-Stearoyl])GG-NH2 (N-terminus assumed; SMILES CCCCCCCCCCCCCCCCCC(=O)N[C@@H](CCC(=O)N[C@@H](CCC(=O)NCCCC[C@H](NC(=O)[C@@H](NC(=O)[C@@H](NC(=O)[C@](C)(Cc1ccccc1)NC(=O)[C@H](C)NC(=O)[C@@H](NC(=O)[C@](C)(Cc1ccccc1)NC(=O)[C@H](CCC(=O)O)NC(=O)[C@](C)(CCCCN)NC(=O)[C@H](C)NC(=O)[C@H](C)NC(=O)[C@H](CCC(=O)O)NC(=O)CNC(=O)[C@H](CCC(=O)O)NC(=O)[C@H](CC(C)C)NC(=O)[C@](C)(Cc1ccccc1)NC(=O)[C@H](CO)NC(=O)[C@](C)(CO)NC(=O)[C@@H](NC(=O)[C@H](CC(=O)O)NC(=O)[C@H](CO)NC(=O)[C@@H](NC(=O)[C@](C)(Cc1ccccc1)NC(=O)[C@H](CO)NC(=O)CNC(=O)[C@H](CCC(=O)O)NC(=O)C(C)(C)NC(=O)[C@@H](N)Cc1c[nH]cn1)[C@@H](C)O)C(C)C)[C@@H](C)CC)C(C)C)C(C)C)C(=O)NCC(=O)NCC(N)=O)C(=O)O)C(=O)O) [SEQ ID NO 183]
26	26	0.0032	0.0011	2.2	26	26	H[Aib]EGS[αMeF]TSDV[αMeS]S[αMeF]LEGEAA[αMeK]E[αMeF]IA[αMeF]VVK([PEG2′-PEG2′-Dodecylbenzoate])GG-NH2 [SEQ ID NO 180]
27	27	0.021	0.0092	15.1	27	27	H[Aib]EGS[αMeF]TSDV[αMeS]S[αMeF]LEGEAA[αMeK]E[αMeF]IA[αMeF]VVK([γGlu-Dodecylbenzoate])GG-NH2 [SEQ ID NO 173]
26	26	0.005	0.0023	3.6	26	26	H[Aib]EGS[αMeF]TSDV[αMeS]S[αMeF]LEGEAA[αMeK]E[αMeF]IA[αMeF]VVK([Ahx-Ahx-Ahx-Dodecylbenzoate])GG-NH2 [SEQ ID NO 178]
26	26	0.047	0.012	29.5	26	26	H[Aib]EGS[αMeF]TSDV[αMeS]S[αMeF]LEGEAA[αMeK]E[αMeF]IA[αMeF]VVK([γGlu-γGlu-γGlu-Stearoyl])GG-NH2 (N-terminus assumed; SMILES CCCCCCCCCCCCCCCCCC(=O)N[C@@H](CCC(=O)N[C@@H](CCC(=O)N[C@@H](CCC(=O)NCCCC[C@H](NC(=O)[C@@H](NC(=O)[C@@H](NC(=O)[C@](C)(Cc1ccccc1)NC(=O)[C@H](C)NC(=O)[C@@H](NC(=O)[C@](C)(Cc1ccccc1)NC(=O)[C@H](CCC(=O)O)NC(=O)[C@](C)(CCCCN)NC(=O)[C@H](C)NC(=O)[C@H](C)NC(=O)[C@H](CCC(=O)O)NC(=O)CNC(=O)[C@H](CCC(=O)O)NC(=O)[C@H](CC(C)C)NC(=O)[C@](C)(Cc1ccccc1)NC(=O)[C@H](CO)NC(=O)[C@](C)(CO)NC(=O)[C@@H](NC(=O)[C@H](CC(=O)O)NC(=O)[C@H](CO)NC(=O)[C@@H](NC(=O)[C@](C)(Cc1ccccc1)NC(=O)[C@H](CO)NC(=O)CNC(=O)[C@H](CCC(=O)O)NC(=O)C(C)(C)NC(=O)[C@@H](N)Cc1c[nH]cn1)[C@@H](C)O)C(C)C)[C@@H](C)CC)C(C)C)C(C)C)C(=O)NCC(=O)NCC(N)=O)C(=O)O)C(=O)O)C(=O)O) [SEQ ID NO 184]
26	26	0.022	0.011	16.3	26	26	H[Aib]EGS[αMeF]TSDV[αMeS]S[αMeF]LEGEAA[αMeK]E[αMeF]IA[αMeF]VVK([γGlu-γGlu-Dodecylbenzoate])GG-NH2 [SEQ ID NO 174]
26	26	0.023	0.012	17.4	26	26	H[Aib]EGS[αMeF]TSDV[αMeS]S[αMeF]LEGEAA[αMeK]E[αMeF]IA[αMeF]VVK([γGlu-γGlu-γGlu-Dodecylbenzoate])GG-NH2 [SEQ ID NO 175]
27	27	0.023	0.0096	16	27	27	H[Aib]EGS[αMeF]TSDV[αMeS]S[αMeF]LEGEAA[αMeK]E[αMeF]IA[αMeF]VVK([Ahx-Dodecylbenzoate])GG-NH2 [SEQ ID NO 176]
